{
  "source": "patent US11549134B2",
  "about": "“Modified amadoriase and method for producing the same, agent for improving surfactant resistance of amadoriase and composition for measuring HbA1c using the same” (Kikkoman Corporation, priority 2013, dated 2023)",
  "molecules": {"B1": {"name": "CcFX: ketoamine oxidase derived from Curvularia clavata, SEQ ID NO: 37 (protein, listed as Curvularia clavata)", "chain": "MAPSRANTSVIVVGGGGTIGSSTALHLVRSGYTPSNITVLDTYPIPSAQSAGNDLNKIMGIRLRNKVDLQLSLEARQMWREDDLFKEYFHNTGRLDCAHGEEGLADLRQAYQALLDANAGLEETTEWLDSEDEILKKMPLLDREQIKGWKAVYSQDGGWLAAAKAINAIGEYLRAQGVKFGFGGAGSFKQPLLAEGVCIGVETVDGTRYYADKVVLAAGAWSPVLVDLEDQCVSKAWVYAHIQLTPEEAAEYKNVPVVYNGDVGFFFEPDEHGVIKVCDEFPGFTRFKQHQPYGAKAPKRISVPRSAAKHPTDTYPDASEKSIRKAIATFLPKFTEKELFNRHLCWCTDTADAALLMCEHPEWKNFVLATGDSGHTFKLLPNIGKHVVELLEGTLAEDLAHAWRWRPGTGDALKSRRAAPAKDLADMPGWKHDDVVKSKL"}, "B2": {"name": "CFP-D: amadoriase derived from the genus Coniochaeta with E98A, F43Y, G184D, deletion of 3 carboxy-terminal amino acid residues; SEQ ID NO: 3 (protein, listed as Coniochaeta sp.)", "chain": "MTSNRADTRVIVVGGGGTIGSSTALHLVRSGYAPANITVLDTYEIPSAQSAGHDLNKIMGIRLRNKVDLQMSLEARQMWKEDELFQPFFHNTGRMDCAHTPEGIEDLKKQYQALHDAGAGLEKTHAWLDNEDEILSKMPLLQRDQIQGWKAIWSQDGGWLAAAKAINAIGQFLKERGVKFGFGDAGSFKQPLFDDEGTTCIGVETADGTKYYADKVVLAAGAWSPTLVDLEDQCCSKAWVYAHIQLTPEEAAEYKGVPVVYNGEFGFFFEPDEFGVIKVCDEFPGFSRFKEHQPYGAPSPKRISVPRSHAKHPTDTYPDASEVSIKKAIATFLPRFQDKELFNRALCWCTDTADAALLMCEHPKWKNFILATGDSGHSFKILPNVGKYVVELIEGRLPEEMAYQWRWRPGGDALKSRRAAPPKDLADMPGWKHD", "modifications": "3 C-terminal residues deleted"}},
  "assay_type_in_all_cases": "biochemical",
  "key": {"[1]": {"test": "Surfactant resistance (residual activity) of CcFX variants, 0.01% CTAC", "conditions": "30°C, 5 minutes, 20 mM potassium phosphate buffer (pH 7.0), crude enzyme, Table 1-2", "protocol": "(§1) An amadoriase crude enzyme solution or an amadoriase purified sample is diluted with a 30 mM MES/21 mM Tris buffer solution (pH6.5) so as to have a concentration of about 1.0 U/ml. To this, CTAC (for example, manufactured by Tokyo Kasei Kogyo Co., Ltd.) is added so as to obtain a final concentration 0.01% (w/v) or 0.04%. The resultant mixture is heated at 30° C. for 5 minutes. After heating, the mixture is diluted double with a 10 mM phosphate buffer (pH7.0) containing 0.15% BSA to prepare a sample. The enzyme activities of the sample before and after a surfactant treatment are measured by the method described in Section B above. […] In this manner, surfactant resistance is evaluated.\nUsing a recombinant plasmid containing CcFX gene (SEQ ID NO: 55) as a starting plasmid, various variants were produced as in the procedures described in (1) and (2) above in Escherichia coli strain JM109 (pKK223-3-CcFX) having the plasmid. […] Subsequently, the surfactant resistance of the modified amadoriases was evaluated according to the measurement method for surfactant resistance described in (4) although under surfactant treatment conditions in which the amadoriases were each diluted in a 20 mM potassium phosphate buffer solution (pH 7.0) and mixed with 0.01% CTAC. […]"}, "[2]": {"test": "Surfactant resistance (residual activity) of CFP-D multiple variants, 0.04% CTAC", "conditions": "30°C, 5 minutes, crude enzyme", "protocol": "An amadoriase crude enzyme solution or an amadoriase purified sample is diluted with a 30 mM MES/21 mM Tris buffer solution (pH6.5) so as to have a concentration of about 1.0 U/ml. To this, CTAC (for example, manufactured by Tokyo Kasei Kogyo Co., Ltd.) is added so as to obtain a final concentration 0.01% (w/v) or 0.04%. The resultant mixture is heated at 30° C. for 5 minutes. After heating, the mixture is diluted double with a 10 mM phosphate buffer (pH7.0) containing 0.15% BSA to prepare a sample. The enzyme activities of the sample before and after a surfactant treatment are measured by the method described in Section B above. The ratio of activity of the sample after the surfactant treatment relative to the activity of the sample before the surfactant treatment (regarded as 100), i.e., the residual activity (%), is obtained. In this manner, surfactant resistance is evaluated. […]"}, "[3]": {"test": "Surfactant resistance (residual activity), 0.04% TTAC", "conditions": "20 mM potassium phosphate buffer (pH 7.0)", "protocol": "as §1\nTetradecyltrimethylammonium chloride (hereinafter indicated with “TTAC”) was used in place of the surfactant CTAC used in Example 2 to evaluate the stability of CFP-D. The surfactant resistance of various modified amadoriases was evaluated in accordance with a measurement method for surfactant resistance according to Example 1, although under surfactant treatment conditions in which the amadoriases were each diluted in a 20 mM potassium phosphate buffer solution (pH 7.0) and mixed with 0.04% TTAC. In this respect, it was confirmed that when the warmed sample was again measured for activity 30 minutes after 2-fold dilution in a BSA solution, there was no change in the activity value."}, "[4]": {"test": "Surfactant resistance (residual activity), 0.04% SDS", "conditions": "30 mM MES/21 mM Tris buffer (pH 6.5)", "protocol": "as §1\nThe stability of CFP-D was evaluated using sodium dodecyl sulfate (hereinafter indicated with “SDS”) in place of the surfactant CTAC used in Example 2. The surfactant resistance of the modified amadoriases was evaluated in accordance with a measurement method for surfactant resistance according to Example 1 although under surfactant treatment conditions in which the amadoriases were each diluted in a 30 mM MES/21 mM Tris buffer solution (pH 6.5) and mixed with 0.04% SDS. In this respect, it was confirmed that when the warmed sample was again measured for activity 30 minutes after 2-fold dilution in a BSA solution, there was no change in the activity value."}},
  "data": [
    {"molecule": "B1", "values": [
      {"measurement": "Residual Activity(%)", "setting": "[1]", "result": 27.4, "unit": "%"}
    ]},
    {"molecule": "B2", "values": [
      {"measurement": "Residual Activity(%)", "setting": "[2]", "result": 12.7, "unit": "%"},
      {"measurement": "Residual Activity(%)", "setting": "[3]", "result": 29.2, "unit": "%"},
      {"measurement": "Residual Activity(%)", "setting": "[4]", "result": 11.3, "unit": "%"}
    ]}
  ]
}
